Measurements as given in patent US20260035431A1 (CAVALRY BIOSCIENCES, published 2026).
Positions count from the first letter of the chain named. In names and notes the source's numbering stands. Blank lines part the entries; values can stand above or below the binder they belong to.

How the values were obtained:
Assay in all cases: cell-based or functional assay
[1] = molecular target: T1, IGF1 receptor (IGF1R) on DU145 cells or immortalized human meibomian gland epithelial cells (human, UniProt P08069 31-1367)
IGFBP2 = molecular target: T2, IGFBP2 (UniProt P18065 37-325, limits assumed)
T2 sequence (looked up): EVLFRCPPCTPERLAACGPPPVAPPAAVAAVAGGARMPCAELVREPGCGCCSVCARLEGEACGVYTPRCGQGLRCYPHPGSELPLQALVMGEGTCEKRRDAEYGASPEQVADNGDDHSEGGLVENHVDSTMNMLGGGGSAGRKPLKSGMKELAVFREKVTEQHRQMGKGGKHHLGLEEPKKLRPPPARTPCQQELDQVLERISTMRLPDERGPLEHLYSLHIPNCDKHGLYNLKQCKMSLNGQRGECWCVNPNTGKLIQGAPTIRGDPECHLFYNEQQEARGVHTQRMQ

IGFBP3 = IGFBP3 (UniProt P17936 28-291)
[2] = molecular target: T1, IGF1 receptor (IGF1R) on DU145 cells or …; remark: listed apart in the source

T1 sequence (P08069 31-1367): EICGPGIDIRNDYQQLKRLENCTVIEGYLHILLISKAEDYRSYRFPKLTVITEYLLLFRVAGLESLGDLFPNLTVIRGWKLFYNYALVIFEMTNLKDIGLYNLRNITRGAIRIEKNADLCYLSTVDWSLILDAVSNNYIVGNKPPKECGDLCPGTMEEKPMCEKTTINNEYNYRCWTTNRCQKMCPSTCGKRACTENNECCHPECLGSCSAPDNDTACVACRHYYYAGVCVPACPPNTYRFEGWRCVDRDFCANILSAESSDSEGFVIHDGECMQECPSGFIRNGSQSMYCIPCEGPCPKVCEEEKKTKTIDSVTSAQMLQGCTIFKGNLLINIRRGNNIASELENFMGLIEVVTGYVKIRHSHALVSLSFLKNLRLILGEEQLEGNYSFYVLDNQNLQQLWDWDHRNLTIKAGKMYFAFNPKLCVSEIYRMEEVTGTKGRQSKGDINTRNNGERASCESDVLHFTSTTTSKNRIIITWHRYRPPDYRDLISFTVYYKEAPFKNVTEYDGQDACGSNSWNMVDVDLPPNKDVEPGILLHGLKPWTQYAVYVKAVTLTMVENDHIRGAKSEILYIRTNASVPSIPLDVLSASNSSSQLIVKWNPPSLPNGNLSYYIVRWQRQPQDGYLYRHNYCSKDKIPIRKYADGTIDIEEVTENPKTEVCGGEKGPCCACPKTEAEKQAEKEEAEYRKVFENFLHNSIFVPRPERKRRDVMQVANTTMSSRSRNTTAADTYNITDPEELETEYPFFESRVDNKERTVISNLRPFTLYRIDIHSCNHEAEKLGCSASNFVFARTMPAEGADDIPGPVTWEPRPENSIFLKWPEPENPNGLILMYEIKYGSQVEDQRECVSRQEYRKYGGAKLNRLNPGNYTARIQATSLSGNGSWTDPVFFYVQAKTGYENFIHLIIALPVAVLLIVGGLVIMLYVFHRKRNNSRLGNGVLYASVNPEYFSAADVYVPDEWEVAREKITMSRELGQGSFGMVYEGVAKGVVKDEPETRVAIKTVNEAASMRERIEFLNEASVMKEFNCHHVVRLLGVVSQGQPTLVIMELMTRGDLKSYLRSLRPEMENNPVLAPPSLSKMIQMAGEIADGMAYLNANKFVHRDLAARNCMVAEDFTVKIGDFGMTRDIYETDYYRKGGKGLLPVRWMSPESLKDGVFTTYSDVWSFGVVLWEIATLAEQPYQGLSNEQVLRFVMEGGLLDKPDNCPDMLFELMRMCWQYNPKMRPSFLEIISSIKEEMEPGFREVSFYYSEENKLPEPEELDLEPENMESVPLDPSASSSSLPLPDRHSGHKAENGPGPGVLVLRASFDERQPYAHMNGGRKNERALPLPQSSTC
Sequence of IGFBP3 (P17936 28-291 limits assumed): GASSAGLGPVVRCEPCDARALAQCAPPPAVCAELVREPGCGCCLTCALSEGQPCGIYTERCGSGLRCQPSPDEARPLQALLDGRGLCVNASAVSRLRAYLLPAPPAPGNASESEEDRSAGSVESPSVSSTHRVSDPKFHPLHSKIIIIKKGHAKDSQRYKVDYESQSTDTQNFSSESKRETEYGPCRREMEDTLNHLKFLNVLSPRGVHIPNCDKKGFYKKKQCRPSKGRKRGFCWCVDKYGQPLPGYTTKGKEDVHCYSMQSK

B1: IGF-1 Des1-3 (SEQ ID NO: 8) as tested in Example 1 (ligand)
chain: MRAAAPAVAATLCGAELVDALQFVCGDRGFYFNKPTGYGSSSRRAPQTGIVDECCFRSCDLRRLEMYCAPLKPAKSA
EC50, AKT S473 phosphorylation in DU145 cells [1]: 2.3 nM

B2: IGF-1 Des1-3 R37X (ligand)
chain: TLCGAELVDALQFVCGDRGFYFNKPTGYGSSSRAPQTGIVDECCFRSCDLRRLEMYCAPLKPAKSA
EC50, AKT S473 phosphorylation in DU145 cells [1]: 4.1 nM

Now from value to binder, other results behind:

% Activity compared to no IGFBP, 4x BP2 (IGFBP2): 357% | % Activity compared to no IGFBP, 4x BP3 (IGFBP3): 342%
B3: E3R-F49L-D12A (ligand)
chain: GPRTLCGAELVAALQFVCGDRGFYFNKPTGYGSSSRRAPQTGIVDECCLRSCDLRRLEMYCAPLKPAKSA
EC50 (nM), P-AKT in DU145 cells [2]: 17.7 nM

% Activity compared to no IGFBP, 4x BP2 (IGFBP2): 175% | % Activity compared to no IGFBP, 4x BP3 (IGFBP3): 239%
B4: E3R-F49L-L54A (ligand)
chain: B3 chain with A12D, L54A
EC50 (nM), P-AKT in DU145 cells [2]: 11.4 nM

% Activity compared to no IGFBP, 4x BP2 (IGFBP2): 456% | % Activity compared to no IGFBP, 4x BP3 (IGFBP3): 344%
B5: E3R-F49L-D12A-L54A (ligand)
chain: B3 chain with L54A
EC50 (nM), P-AKT in DU145 cells [2]: 68.1 nM
